4 molecules from paper PMC3062689 (Biochemistry, 2011) can be followed below.

In general, Kd refers to the free concentration of one partner at which half of the binding sites on the other are occupied at equilibrium, for simple one-to-one binding. As usually defined, the stoichiometry N is a count of units in the complex or per binding partner.

Read-outs that look alike come from different tables or passages of the source.

Assay in all cases: SEC-MALS
A general note: In gel filtration, larger molecules generally elute earlier.

The target in data set [1] is Mouse arrestin-1-(F86A,F198A) (mouse) (UniProt P20443).
For data set [2], the target named is Mouse arrestin-1-(F86A,F198A, A349V) (mouse) (UniProt P20443).
Data set [3] deals with the molecule itself.
Data set [4] deals with the molecule itself. This is another data set of the same source.
Data set [5] concerns the molecule itself. This is another data set of the same source.
Data set [6] deals with the molecule itself. This is another data set of the same source.

In data set [1], “Mouse arrestin-1-(F86A,F198A) (from UniProt P20443 1-403) (natural protein)” had a dissociation constant (Kd) of 537 µM, a log Kdim (association constant) of 3.27 and a stoichiometry N of 2.
As to “Mouse arrestin-1-(F86A,F198A, A349V) (from UniProt P20443 1-403) (natural protein)”, in data set [2], the Kd worked out at 724 µM, the log Kdim (association constant) amounted to 3.14 and the stoichiometry N stood at 2.

B1: wild type mouse arrestin-1 (natural protein, UniProt P20443 1-403, looked up)
chain: MAACGKTNKSHVIFKKVSRDKSVTIYLGKRDYVDHVSQVEPVDGVVLVDPELVKGKKVYVTLTCAFRYGQEDIDVMGLTFRRDLYFSRVQVYPPVGAMSVLTQLQESLLKKLGDNTYPFLLTFPDYLPCSVMLQPAPQDVGKSCGVDFEVKAFASDITDPEEDKIPKKSSVRLLIRKVQHAPPEMGPQPSAEASWQFFMSDKPLNLSVSLSKEIYFHGEPIPVTVTVTNNTDKVVKKIKVSVEQIANVVLYSSDYYVKPVASEETQEKVQPNSTLTKTLVLVPLLANNRERRGIALDGKIKHEDTNLASSTIIKEGIDRTVMGILVSYHIKVKLTVSGFLGELTSSEVATEVPFRLMHPQPEDPAKESVQDENLVFEEFARQNLKDTGENTEGKKDEDAGQDE
On to B1, for which the “stoichiometry N” value was 4 in “SEC-MALS [3]” and 2 in “SEC-MALS [5]”. The results for the Kd in the data set “SEC-MALS [4]” and in the data set “SEC-MALS [6]” were 63.1 µM and 57.5 µM, respectively.

B2: wild type human arrestin-1 (natural protein, UniProt P10523 1-405, looked up)
chain: MAASGKTSKSEPNHVIFKKISRDKSVTIYLGNRDYIDHVSQVQPVDGVVLVDPDLVKGKKVYVTLTCAFRYGQEDIDVIGLTFRRDLYFSRVQVYPPVGAASTPTKLQESLLKKLGSNTYPFLLTFPDYLPCSVMLQPAPQDSGKSCGVDFEVKAFATDSTDAEEDKIPKKSSVRLLIRKVQHAPLEMGPQPRAEAAWQFFMSDKPLHLAVSLNKEIYFHGEPIPVTVTVTNNTEKTVKKIKAFVEQVANVVLYSSDYYVKPVAMEEAQEKVPPNSTLTKTLTLLPLLANNRERRGIALDGKIKHEDTNLASSTIIKEGIDRTVLGILVSYQIKVKLTVSGFLGELTSSEVATEVPFRLMHPQPEDPAKESYQDANLVFEEFARHNLKDAGEAEEGKRDKNDVDE
In the case of B2, the Kd in the data set “SEC-MALS [4]” stood at 224 µM; in the data set “SEC-MALS [6]”, 2.95 µM.
